In paper PMC10213515:

These substances were tested against FtsZ (UniProt P0A9A6) (assay: PL recruitment assay (SUV co-sedimentation by low-speed centrifugation, SDS-PAGE)). Details: FtsZ 3 μM, GTP 2 mM, FtsA wild type or mutant 2.5 μM, SUVs 250 μg ml-1, ATP 4 mM; parent: 93.7.
UniProt P0A9A6, sequence (P0A9A6 whole entry): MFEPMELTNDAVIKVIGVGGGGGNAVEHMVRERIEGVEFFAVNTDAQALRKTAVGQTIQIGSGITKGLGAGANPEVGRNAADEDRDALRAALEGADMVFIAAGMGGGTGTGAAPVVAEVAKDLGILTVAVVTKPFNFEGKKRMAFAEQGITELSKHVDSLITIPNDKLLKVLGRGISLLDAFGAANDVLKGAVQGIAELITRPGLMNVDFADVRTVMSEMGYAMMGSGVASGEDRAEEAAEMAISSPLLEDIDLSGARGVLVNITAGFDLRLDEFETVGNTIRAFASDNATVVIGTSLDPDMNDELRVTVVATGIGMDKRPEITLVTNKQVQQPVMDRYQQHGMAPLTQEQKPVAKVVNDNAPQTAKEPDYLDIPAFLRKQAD

Point of comparison: “FtsA wild type (from UniProt P0ABH0) E14R”, response 83.8 % of total. Against it:
- FtsA wild type (from UniProt P0ABH0) S84L — higher, 97.2 % of total
- FtsA wild type (from UniProt P0ABH0) A188V — higher, 95.3 % of total
- FtsA wild type (from UniProt P0ABH0) Y375A — lower, 41.1 % of total
